Our source for the Kd values is patent US20250066503A1, “CELL INJURY INDUCING THERAPEUTIC DRUG FOR USE IN CANCER THERAPY” (CHUGAI SEIYAKU KABUSHIKI KAISHA, priority 2016, published 2025).

Where a chain is given by its changes, count along the chain named.

For the assay, the target named is T1, human GPC3 (human, UniProt P51654 25-563).
T1 construct: range 25-563; soluble analyte; also called soluble human GPC3; glypican 3
Put plainly: SPR. Background: SPR reads the build-up and loss of mass on a sensor chip optically.

T1 sequence (P51654 25-563 limits assumed): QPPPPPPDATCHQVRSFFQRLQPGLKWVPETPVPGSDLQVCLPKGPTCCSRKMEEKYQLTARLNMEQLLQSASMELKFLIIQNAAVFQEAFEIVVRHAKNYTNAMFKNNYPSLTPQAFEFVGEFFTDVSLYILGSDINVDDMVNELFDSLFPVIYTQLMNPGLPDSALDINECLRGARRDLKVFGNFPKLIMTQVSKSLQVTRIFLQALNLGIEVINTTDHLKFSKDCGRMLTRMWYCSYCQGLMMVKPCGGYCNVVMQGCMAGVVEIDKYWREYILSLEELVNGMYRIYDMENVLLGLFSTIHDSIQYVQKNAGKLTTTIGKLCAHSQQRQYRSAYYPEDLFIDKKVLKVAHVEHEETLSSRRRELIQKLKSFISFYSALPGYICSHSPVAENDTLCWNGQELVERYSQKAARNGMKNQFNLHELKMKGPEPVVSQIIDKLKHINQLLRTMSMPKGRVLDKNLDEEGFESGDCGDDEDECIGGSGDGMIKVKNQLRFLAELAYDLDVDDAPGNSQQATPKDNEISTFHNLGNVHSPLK

B1: GCH061-G1dh/none-Hi-Kn010G3/L0000-k0 (antibody, V domains shown)
VH: QVQLVQSGAEVKKPGASVKVSCKASGYTFTDYEMHWVRQAPGQGLEWIGAIDGKTPDTAYSQKFKGRVTLTADKSTSTAYMELSSLTSEDTAVYYCTRFYSYTYWGQGTLVTVSS
VL: DIVMTQSPLSLPVTPGEPASISCRSSQSLVHSNRNTYLHWYQQKPGQAPRLLIYKVSNRFSGVPDRFSGSGSGTDFTLKISRVEAEDVGVYYCGQGTQVPYTFGQGTKLEIKR
notes: one-arm
For the molecule B1, the Kd is 5.13 nM.

B2: GCH073-G1dh/none-Hi-Kn010G3/L0000-k0 (antibody, V domains shown)
VH: B1 VH with K19T, V37I, A40P, Q43E, K54P, K65E
VL: B1 VL
notes: one-arm
B2 came in with a Kd of 2 nM.

B3: GCH098-G1dh/none-Hi-Kn010G3/L0000-k0 (antibody, V domains shown)
VH: B1 VH with K19T, Q43E, I48M, K54P, Q62E
VL: B1 VL
notes: one-arm
As for B3, binding was put at a Kd of 1.77 nM. This Kd and that of the molecule before are within 1.5-fold of each other.

B4: GCH064-G1dh/none-Hi-Kn010G3/L0000-k0 (antibody, V domains shown)
VH: B1 VH with V37I, A40P, T87R
VL: B1 VL
notes: one-arm
For the molecule B4, the Kd turned out to be 4.14 nM. This Kd lies about 2.3-fold higher than the previous one.

B5: GCH094-G1dh/none-Hi-Kn010G3/L0201-k0 (antibody, V domains shown)
VH: B1 VH with K19T, Q43E, I48M, K54E, Q62E
VL: B1 VL with S28P, L29P
notes: one-arm
In turn, B5 had a dissociation constant (Kd) of 1.17 nM.

B6: GCH065-G1dh/none-Hi-Kn010G3/L0000-k0 (antibody, V domains shown)
VH: B1 VH with K19T, V37I, A40P, Q43E, K54P, Q62E
VL: B1 VL
notes: one-arm
B6 displayed a Kd of 1.41 nM.

B7: GCH098-G1dh/none-Hi-Kn010G3/L0201-k0 (antibody, V domains shown)
VH: B1 VH with K19T, Q43E, I48M, K54P, Q62E
VL: B1 VL with S28P, L29P
notes: one-arm
Consider B7, for which binding was put at a Kd of 0.111 nM.

B8: GCH073-G1dh/none-Hi-Kn010G3/L0011-k0 (antibody, V domains shown)
VH: B1 VH with K19T, V37I, A40P, Q43E, K54P, K65E
VL: B1 VL with S28P
notes: one-arm
In turn, B8 yielded a Kd of 0.91 nM.

B9: GCH062-G1dh/none-Hi-Kn010G3/L0000-k0 (antibody, V domains shown)
VH: B1 VH with V37I, A40P, I48M
VL: B1 VL
notes: one-arm
B9 yielded a Kd of 3.73 nM.

B10: GCH094-G1dh/none-Hi-Kn010G3/L0000-k0 (antibody, V domains shown)
VH: B1 VH with K19T, Q43E, I48M, K54E, Q62E
VL: B1 VL
notes: one-arm
The molecule B10 displayed a Kd of 5.89 nM.

B11: GCH099-G1dh/none-Hi-Kn010G3/L0000-k0 (antibody, V domains shown)
VH: B1 VH with K19T, Q43E, I48M, K54W, Q62E
VL: B1 VL
notes: one-arm
As for B11, the Kd is 4.24 nM.

B12: GCH098-G1dh/none-Hi-Kn010G3/L0011-k0 (antibody, V domains shown)
VH: B1 VH with K19T, Q43E, I48M, K54P, Q62E
VL: B1 VL with S28P
notes: one-arm
As to B12, binding was characterised by a dissociation constant (Kd) of 0.802 nM. This Kd is about 5.3-fold lower than that of the molecule before.

B13: GCH073-G1dh/none-Hi-Kn010G3/L0201-k0 (antibody, V domains shown)
VH: B1 VH with K19T, V37I, A40P, Q43E, K54P, K65E
VL: B1 VL with S28P, L29P
notes: one-arm
On to B13, for which binding was characterised by a dissociation constant (Kd) of 0.035 nM.

B14: GCH065-G1dh/none-Hi-Kn010G3/L0201-k0 (antibody, V domains shown)
VH: B1 VH with K19T, V37I, A40P, Q43E, K54P, Q62E
VL: B1 VL with S28P, L29P
notes: one-arm
B14: the Kd worked out at 0.0774 nM.

B15: GCH067-G1dh/none-Hi-Kn010G3/L0000-k0 (antibody, V domains shown)
VH: B1 VH with K19T, V37I, A40P, Q43E, K54Y, Q62E
VL: B1 VL
notes: one-arm
As for B15, the Kd stood at 5.24 nM.

B16: GCH068-G1dh/none-Hi-Kn010G3/L0000-k0 (antibody, V domains shown)
VH: B1 VH with K19T, V37I, A40P, Q43E, Q62E
VL: B1 VL
notes: one-arm
B16 gave a dissociation constant (Kd) of 6.23 nM.

B17: GCH066-G1dh/none-Hi-Kn010G3/L0000-k0 (antibody, V domains shown)
VH: B1 VH with K19T, V37I, A40P, Q43E, K54W, Q62E
VL: B1 VL
notes: one-arm
With B17, the Kd came out at 4.29 nM.

For orientation: Kd means the concentration at which binding is half-saturated. The low end stands for a tighter complex, the high end for a looser complex.
